From paper PMC12114846, “Interleukin-15Rα-Sushi-Fc Fusion Protein Co-Hitchhikes Interleukin-15 and Pheophorbide A for Cancer Photoimmunotherapy” (Pharmaceutics, 2025)

Experiments:
[1] = target: commercial whole IL-15Rα fusion protein (rIL-15Rα-Fc) (UniProt Q13261); experiment: not stated; affinity shown in Figure S3A,B; method not told in the main text
[2] = target: recombinant interleukin-15Rα-sushi-Fc fusion protein (human); experiment: as above
[3] = target: recombinant interleukin-15Rα-sushi-Fc fusion protein (human); experiment: pull-down; rILR-Fc/PhA NPs incubated with rIL-15 at 37 °C for 30 min in PBS; nanoparticles adsorbed on a Protein A agarose column; free rIL-15 quantified by sandwich ELISA
[4] = target: recombinant interleukin-15Rα-sushi-Fc fusion protein (human)
[5] = target: commercial whole IL-15Rα fusion protein (rIL-15Rα-Fc) (UniProt Q13261)
[6] = target: recombinant interleukin-15Rα-sushi-Fc fusion protein (human); remark: listed apart in the source

Chain of commercial whole IL-15Rα fusion protein (rIL-15Rα-Fc) (Q13261 31-205): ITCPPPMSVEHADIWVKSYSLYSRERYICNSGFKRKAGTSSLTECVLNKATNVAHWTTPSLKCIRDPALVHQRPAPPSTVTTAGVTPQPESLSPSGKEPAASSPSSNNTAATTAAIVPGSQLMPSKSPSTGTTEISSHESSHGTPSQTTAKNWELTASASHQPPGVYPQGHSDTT
Chain of recombinant wild-type IL-15 (P40933 49-162): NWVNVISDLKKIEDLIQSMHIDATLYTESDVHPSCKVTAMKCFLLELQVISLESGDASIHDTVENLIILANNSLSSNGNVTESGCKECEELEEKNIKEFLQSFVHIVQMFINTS

Row | affinity [1] [nM] | affinity [2] [nM] | encapsulation efficiency (percent of rIL-15 held by the rILR-Fc/PhA/rIL-15 NPs) [3] [%] | molar ratio of rIL-15 to rILR-Fc in the nanoparticles [3] | serum elimination half-life (t1/2) of rIL-15 in mice after i.v. injection of rILR-Fc/PhA/rIL-15 NPs (free rIL-15: 20.24 min) [4] [min] | EC50 of M-07e cell proliferation, rIL-15-wt pre-associated with rIL-15Rα-Fc (rIL-15-wt alone: 3.26 nM) [5] [nM] | EC50 of M-07e cell proliferation, rIL-15-wt pre-associated with rILR-Fc (rIL-15-wt alone: 3.26 nM) [6] [nM] | Substance
1 | 0.115 | 0.24 | 99.5 | 0.81 | 39.4 | – | – | recombinant IL-15 (N72D-mutated human IL-15) (ligand)
2 | – | – | – | – | – | 1.65 | 1.62 | recombinant wild-type IL-15 (from UniProt P40933 49-162) (ligand)
